Measurements reported in patent US20230218776A1, “ANTI-NTB-A ANTIBODIES AND RELATED COMPOSITIONS AND METHODS” (SEAGEN INC., priority 2015, published 2023).
Entries after “also recorded” stand apart in the source; their conditions may differ. Read-outs that look alike come from different tables or passages of the source. Where a SMILES comes first, the peptide text is derived from it. [ ]: non-standard residue; d: D form. The star is where a group is joined. Dolaproine = CO[C@@H]([C@@H]1CCCN1)[C@@H](C)C(=O)O; Dil = CC[C@H](C)[C@H](NC)[C@@H](CC(=O)O)OC; X1 = C[C@@H](N*)[C@@H](O)c1ccccc1; NMeV = CN[C@H](C(=O)O)C(C)C

Tests used:
[1] = tested on: Normal human T cells; assay: Complement-dependent cytotoxicity (CDC), Sytox Green; assay type: cell-based; conditions: 0.02-50 μg/mL, human serum, 2 hours
Method: (§1) Complement-Dependent Cytotoxicity (CDC): Normal human T cells (All Cells, Alameda, Calif.) or cancer cell lines (ATCC, Manassas, Va.) were labelledlabeled with 5 μM Sytox Green (Life Technologies, Grand Island, N.Y.), then bound with serial a serial dose titrations of anti-human NTB-A h20F3 antibody or PBD dimer ADCies (0.02-50 μg/mL) in RPMI1640 media+1020% human serum (Complement Technology, Tyler, TX or Solomon Park Research Laboratories, Kirkland, Wash. Cells were incubated at 37° C., 5% CO2 for 2 hours, and fluorescence from lysed cells was measured with an Envision plate reader (Perkin Elmer, Waltham, Mass.). Data was expressed as a percentage of maximum cell lysis determined with a positive control of 1% TritonX-100-treated cells (Sigma, ST. Louis, Mo.).
(§2) Three cell types were used for analysis: normal human T cells, WIL2-S cells, and Raji cells. Expression of relevant receptors on each cell type is found in Table 7 and is indicated as number of receptor per cell.

[2] = tested on: Normal human T cells; assay: ADCC, flow cytometry-based assay with NK effector cells; assay type: cell-based; conditions: NK effector to target 10:1, 4 hours
Method: A flow cytometry-based assay was used to measure ADCC activity on normal human T cells. PKH2-labeled normal human T cell targets were bound with titrations of antibody (0.1 ng/mL-10 μg/mL) and then incubated with effector NK cells at an effector to target ratio of 10:1 for 4 hours at 37° C., 5% CO2. Viability was determined by 7-AAD incorporation as measured on the FACsCalibur flow cytometer (BD BioSciences, San Jose, Calif.).

[3] = tested on: Normal human T cells; assay: ADCP with monocyte-derived macrophages; assay type: cell-based; conditions: dilution series starting at 2 μg/mL
Method: (§3) To assess NTB-A mediated ADCP activity, normal T lymphocytes or tumor cells were labeled with the red fluorescent membrane dye, PKH26, then labeled with antibody or ADC in a 5-point, 10-fold dilution series starting at 2 μg/mL. Cells were then incubated for 30 minutes on ice and washed twice with PBS. Cells were mixed with monocyte-derived macrophages for one hour at 37° C. The cell mixture was then stained with Alexa Fluor 488-conjugated murine anti-CD11b to label macrophages and analyzed by flow cytometry to detect PKH26+CD11b+ double-labeled fluorescent cells. Phagocytic activity was calculated as (percent PKH26+CD11b+)/(percent CD11b+cells) multiplied by one hundred.

[4] = tested on: resting human B lymphocytes; assay: Cytotoxicity on resting human lymphocytes, Cell-Titer Glo, 96 hours; assay type: cell-based; conditions: for IC50: 96 hours; for ADC concentration with cytotoxic effect on resting B lymphocytes: resting human B lymphocytes, 96 hour cytotoxicity assay
Method: (§4) To assess the cytotoxic effects of anti-NTB-A ADCs on resting human T and B lymphocytes, purified cells were seeded into black 96-well assay plates. Cells were then treated with anti-NTB-A ADCs starting at 10 ug/mL titrated down 5-fold for a total of 8 dilution points. For free drug treatment, cells were dosed with either MMAE starting at 1,000 nM or free PBD dimer starting at 100 nM titrated down 5-fold for a total of 8 dilution points. Plates were incubated at 37° C., 5% CO2 for 96 hours then allowed to equilibrate to room temperature. An equal volume of Cell-Titer Glo reagent was added to each well and the plate was incubated an additional 30 minutes at room temperature. Plates were then read on a Perkin Elmer Envision plate reader. Dose effect curves and IC50 values were calculated using GraphPad Prism software.

[5] = tested on: resting human T lymphocytes; assay: as above; assay type: cell-based
Method: as §4

[6] = tested on: Raji cell line; assay: Complement-dependent cytotoxicity (CDC), Sytox Green; assay type: cell-based; conditions: 0.02-50 μg/mL, human serum, 2 hours
Method: as §1, §2

[7] = tested on: WIL2-S cell line; assay: as above; assay type: cell-based; conditions: 0.02-50 μg/mL, human serum, 2 hours
Method: as §1, §2

[8] = tested on: WIL2-S cell line; assay: ADCC, chromium-51 release with NK effector cells; assay type: cell-based; conditions: NK effector to target 10:1, 4 hours
Method: Antibody-Dependent Cellular Cytotoxicity (ADCC) Activity Assay: ADCC cytotoxic activity was measured by chromium-51 release in which effector natural killer (NK) cells kill (lyse) target cells via binding to the antibody or ADC on the target cells. WIL2-S cells were labeled with chromium-51, bound with antibody (0.1 ng/mL-10 μg/mL), and then incubated with NK cells at an effector to target ratio of 10:1 for 4 hours at 37° C., 5% CO2. Supernatant was removed to a filter plate and chromium-51 counts were measured with a TopCount (Perkin Elmer, Waltham, Mass.). Data was expressed as a percentage of maximum specific cell lysis determined with a positive control of 1% TritonX-100-treated cells (Sigma, St. Louis, Mo.).

[9] = tested on: Raji cell line; assay: ADCP with monocyte-derived macrophages; assay type: cell-based; conditions: dilution series starting at 2 μg/mL
Method: as §3

[10] = tested on: WIL2-S cell line; assay: ADCP with monocyte-derived macrophages; assay type: cell-based; conditions: dilution series starting at 2 μg/mL
Method: as §3

[11] = target: T1, human NTB-A (Homo sapiens, UniProt Q96DU3); assay: Saturation binding (Kd) of AF647-labelled antibody on Ramos cells; conditions: 1 hour on ice
T1 construct: endogenous in cells; host or cells: Ramos cells
T1 sequence (Q96DU3 22-332): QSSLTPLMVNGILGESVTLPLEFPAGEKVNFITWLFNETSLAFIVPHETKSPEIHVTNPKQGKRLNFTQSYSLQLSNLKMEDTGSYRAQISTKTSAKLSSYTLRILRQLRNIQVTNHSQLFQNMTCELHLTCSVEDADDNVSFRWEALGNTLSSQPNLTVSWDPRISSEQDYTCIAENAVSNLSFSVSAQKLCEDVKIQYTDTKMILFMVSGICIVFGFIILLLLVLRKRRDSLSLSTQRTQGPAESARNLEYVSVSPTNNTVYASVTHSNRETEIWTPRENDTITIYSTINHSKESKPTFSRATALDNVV
Method: (§5) Dose titrations of the anti-human NTB-A antibodies conjugated to Alexa Fluor 647 (, h20F3_HDLD-AF647) were used to generate saturation binding curves. Antigen positive Ramos cells were plated at 1×10^5 cells per well in a 96 well V-bottom plate (Thermo Scientific, Rochester, N.Y.). Three-fold serial dilutions of 2× concentrated antibodies were prepared in FACs buffer (PBS+2% fetal bovine serum) and were added to the cells in duplicate. The antibody solutions were incubated with cells for 1 hour on ice, protected from light. The cells were washed twice with FACs buffer and analyzed on the LSRII flow cytometer (BD BioSciences, San Jose, Calif.). KD values were determined with GraphPad Prism software (La Jolla, Calif.). Anti-human NTB-A antibodies h20F3_HDLD and chimeric 20F3 were tested for binding to 293-F17 cells overexpressing cynomolgus-NTB-A. 293-F17/cynomolgus-NTB-A cells were plated at 5×10^5 cells/well in FACS buffer (PBS+2% fetal bovine serum+0.02% azide) and incubated with 20 μg/mL antibody for 30 minutes on ice. The cells were washed twice and stained with 30 μg/mL goat anti-human IgG-PE (Jackson ImmunoResearch, West Grove, Pa.) for 30 minutes, on ice and protected from light. Cells were again washed twice with FACs buffer. Stained cells were analyzed on the FACs Calibur flow cytometer (BD BioSciences, San Jose, Calif.).

[12] = tested on: cynomolgus-NTB-A; assay: Binding to 293-F17 cells overexpressing cynomolgus-NTB-A, flow cytometry; conditions: 293-F17/cynomolgus-NTB-A cells; 20 μg/mL antibody
Method: as §5

[13] = Donor 1, B cell, NTB-A receptor # 6,811
[14] = Donor 2, B cell, NTB-A receptor # 11,037
[15] = Donor 3, B cell, NTB-A receptor # 8,771
[16] = Donor 4, T cell, NTB-A receptor # 5,547
[17] = Donor 5, T cell, NTB-A receptor # 7,979
[18] = Donor 6, T cell, NTB-A receptor # 5,522

cynomolgus-NTB-A, sequence (as listed by the source): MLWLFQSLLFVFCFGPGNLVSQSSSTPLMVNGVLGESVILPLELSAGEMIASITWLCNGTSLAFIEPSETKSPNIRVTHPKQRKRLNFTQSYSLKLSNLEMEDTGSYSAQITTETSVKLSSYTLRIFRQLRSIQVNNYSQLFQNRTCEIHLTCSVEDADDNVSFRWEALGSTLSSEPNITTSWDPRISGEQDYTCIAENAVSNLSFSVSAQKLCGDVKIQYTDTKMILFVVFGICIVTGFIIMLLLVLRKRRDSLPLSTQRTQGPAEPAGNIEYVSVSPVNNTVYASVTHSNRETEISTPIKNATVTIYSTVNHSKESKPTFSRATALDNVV

In the case of “Campath: anti-CD52 antibody control [reference compound]”, the “CDC Maximum % Specific Cell Lysis” value [1] is reported as 108 ± 5.2%, the “ADCC Maximum % Specific Cell Lysis” value [2] is reported as 60 ± 3.5% and the “ADCP Maximum % Phagocytosis” value [3] is reported as 57%.

CC[C@H](C)[C@@H]([C@@H](CC(=O)N1CCC[C@H]1[C@H](OC)[C@@H](C)C(=O)N[C@H](C)[C@@H](O)c1ccccc1)OC)N(C)C(=O)[C@@H](NC(=O)[C@@H](NC)C(C)C)C(C)C [Free MMAE, monomethyl auristatin E, reference compound] (H-[NMeV]V[Dil][Dolaproine]-X1) was tested, and the IC50 ([4]; Donor 1, B cell, NTB-A receptor # 6,811, free drug, read-out: IC50) was 3 nM, the IC50 ([4]; Donor 2, B cell, NTB-A receptor # 11,037, free drug, read-out: IC50) was 2 nM and the IC50 ([4]; Donor 3, B cell, NTB-A receptor # 8,771, free drug, read-out: IC50) was 5 nM. It also gave an IC50 ([5]; Donor 4, T cell, NTB-A receptor # 5,547, free drug, read-out: IC50) of over 1000 nM, an IC50 ([5]; Donor 5, T cell, NTB-A receptor # 7,979, free drug, read-out: IC50) of over 1000 nM and an IC50 ([5]; Donor 6, T cell, NTB-A receptor # 5,522, free drug, read-out: IC50) of over 1000 nM.

“Rituximab: anti-CD20 antibody control [reference compound]” was tested, and the “CDC Maximum % Specific Cell Lysis” value [6] was 45 ± 5.7%, the “CDC Maximum % Specific Cell Lysis” value [7] was 66 ± 1.4% and the “ADCC Maximum % Specific Cell Lysis” value [8] was 42 ± 6.0%. The “ADCP Maximum % Phagocytosis” value [9] was 57% and the “ADCP Maximum % Phagocytosis” value [10] was 56%.

B1: c20F3-1910(2) (conjugate)
VH: QIQLVQSGPELKKPGETVKISCKASGYTFTNYGMNWVKQAPGKDLKWMGWINTYSGEPRYADDFKGRFAFSLEKSANTAYLQINNLKNEDMATYFCARDYGRWYFDVWGTGTTVTVSS
VL: QIVLSQSPAILSASPGEKVTMTCRASSSVSHMHWYQQKPGSSPKPWIYATSNLASGVPARFSGSGSGTSYSLTISRVEAEDAATYYCQQWSSTPRTFGGGTKLEIKR
With B1 the IC50 [4, 13] was 1,468 ng/mL, the IC50 [4, 14] was 1,270 ng/mL and the IC50 [4, 15] was 3,421 ng/mL. For the same molecule, the “ADC concentration with cytotoxic effect on resting B lymphocytes” value [4] was > 1,000 ng/mL, the IC50 [5, 16] was >10,000 ng/mL and the IC50 [5, 17] was >10,000 ng/mL. The IC50 [5, 18] was >10,000 ng/mL.

B2: c20F3-vcMMAE(4): chimeric 20F3 vcMMAE auristatin ADC, drug load 4 (conjugate)
VH: QIQLVQSGPELKKPGETVKISCKASGYTFTNYGMNWVKQAPGKDLKWMGWINTYSGEPRYADDFKGRFAFSLEKSANTAYLQINNLKNEDMATYFCARDYGRWYFDVWGTGTTVTVSS
VL: QIVLSQSPAILSASPGEKVTMTCRASSSVSHMHWYQQKPGSSPKPWIYATSNLASGVPARFSGSGSGTSYSLTISRVEAEDAATYYCQQWSSTPRTFGGGTKLEIKR
modifications: non-natural residues
For B2, the IC50 [4, 13] was >10,000 ng/mL, the IC50 [4, 14] was >10,000 ng/mL and the IC50 [4, 15] was >10,000 ng/mL. The “ADC concentration with cytotoxic effect on resting B lymphocytes” value [4] was “no cytotoxic effect”, the IC50 [5, 16] was >10,000 ng/mL and the IC50 [5, 17] was >10,000 ng/mL. For the same molecule, the IC50 [5, 18] was >10,000 ng/mL.

B3: HDLD: humanized 20F3: HD (SEQ ID NO:8) with LD (SEQ ID NO:18); preferred variant (antibody, V domains shown)
VH: QIQLVQSGSELKKPGASVKVSCKASGYTFTNYGMNWVRQAPGQDLKWMGWINTYSGEPRYADDFKGRFVFSLDKSVNTAYLQISSLKAEDTAVYYCARDYGRWYFDVWGQGTTVTVSS
VL: QIVLSQSPATLSLSPGERATMSCRASSSVSHMHWYQQKPGQAPRPWIYATSNLASGVPARFSGSGSGTDYTLTISSLEPEDFAVYYCQQWSSTPRTFGGGTKVEIKR
modifications: mature heavy chain variable region of humanized 20F3 HD; mature light chain variable region of humanized 20F3 LD
notes: preferred variant
With B3 the Kd [11] was about 2 nM and the Cyno binding [12] was “retained binding; also recorded: positive”.

B4: chimeric: chimeric form of the 20F3 anti-NTB-A antibody (antibody, V domains shown)
VH: QIQLVQSGPELKKPGETVKISCKASGYTFTNYGMNWVKQAPGKDLKWMGWINTYSGEPRYADDFKGRFAFSLEKSANTAYLQINNLKNEDMATYFCARDYGRWYFDVWGTGTTVTVSS
VL: QIVLSQSPAILSASPGEKVTMTCRASSSVSHMHWYQQKPGSSPKPWIYATSNLASGVPARFSGSGSGTSYSLTISRVEAEDAATYYCQQWSSTPRTFGGGTKLEIKR
With B4 the Cyno binding [12] was “positive”.

B5: h20F3wt: humanized 20F3 HDLD antibody with wild-type IgG1 (antibody, V domains shown)
VH: QIQLVQSGSELKKPGASVKVSCKASGYTFTNYGMNWVRQAPGQDLKWMGWINTYSGEPRYADDFKGRFVFSLDKSVNTAYLQISSLKAEDTAVYYCARDYGRWYFDVWGQGTTVTVSS
VL: QIVLSQSPATLSLSPGERATMSCRASSSVSHMHWYQQKPGQAPRPWIYATSNLASGVPARFSGSGSGTDYTLTISSLEPEDFAVYYCQQWSSTPRTFGGGTKVEIKR
For B5, the “CDC Maximum % Specific Cell Lysis” value [1] was 1.3 ± 2.8%, the “CDC Maximum % Specific Cell Lysis” value [6] was 2.1 ± 0.6% and the “CDC Maximum % Specific Cell Lysis” value [7] was 0.0 ± 0.0%. The “ADCC Maximum % Specific Cell Lysis” value [2] was 38 ± 0.8% and the “ADCC Maximum % Specific Cell Lysis” value [8] was 21 ± 0.6%.
